Consider 6 molecules from US8114968 (DYAX, dated 2012).

Test [1] concerns the target T1, human MMP-12 (human, UniProt P39900 106-470, limits assumed). The experiment in a line: cell-based or functional assay.
Test [2] concerns the target T1, human MMP-12. Description: Ki from inhibition of MMP-12 enzyme activity.
Test [3] concerns the target T1, human MMP-12. The experiment in a line: inhibition assay of MMP-12 activity ('IC50 or Ki').
Test [4] addresses T1, human MMP-12. Description: IC50 against substrate concentration, enzyme inhibition, FIG. 3.
The target in test [5] is T2, murine MMP-12 (mouse, UniProt P34960 110-473, limits assumed).
T2 construct: also called mouse MMP12; mMMP12
T2 sequence (P34960 110-473 limits assumed): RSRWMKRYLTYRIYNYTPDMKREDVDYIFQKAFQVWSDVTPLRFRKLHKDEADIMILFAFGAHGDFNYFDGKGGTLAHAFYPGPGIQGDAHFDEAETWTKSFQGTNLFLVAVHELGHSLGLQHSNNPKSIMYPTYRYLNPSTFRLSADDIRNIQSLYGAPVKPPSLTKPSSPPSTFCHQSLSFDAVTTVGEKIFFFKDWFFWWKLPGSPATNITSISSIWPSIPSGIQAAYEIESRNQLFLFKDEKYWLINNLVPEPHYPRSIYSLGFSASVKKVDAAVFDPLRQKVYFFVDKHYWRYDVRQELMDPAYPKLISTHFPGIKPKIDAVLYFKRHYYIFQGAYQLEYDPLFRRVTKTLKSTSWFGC
The test is described as above.

Positions count from the first letter of the chain named.

T1 sequence (P39900 106-470 limits assumed): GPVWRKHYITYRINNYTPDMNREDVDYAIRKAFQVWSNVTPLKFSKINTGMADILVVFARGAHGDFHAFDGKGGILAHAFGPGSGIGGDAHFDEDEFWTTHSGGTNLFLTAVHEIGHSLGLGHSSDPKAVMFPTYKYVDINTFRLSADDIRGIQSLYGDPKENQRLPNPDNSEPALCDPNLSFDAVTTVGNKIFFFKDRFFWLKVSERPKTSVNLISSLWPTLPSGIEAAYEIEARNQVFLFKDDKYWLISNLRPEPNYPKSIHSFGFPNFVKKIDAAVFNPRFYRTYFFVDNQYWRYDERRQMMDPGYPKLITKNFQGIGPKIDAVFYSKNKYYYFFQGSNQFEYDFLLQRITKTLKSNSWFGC

B1: 539A-M0013-D11 IgG (antibody, V domains shown)
VH: EVQLLESGGGLVQPGGSLRLSCAASGFTFSSYPMWWVRQAPGKGLEWVSGIVPSGGVTIYADSVKGRFTISRDNSKNTLYLQMNSLRAEDTAVYYCARVGWLASSDYYYYMDVWGKGTTVTVSS
VL: DIQMTQSPSSLSASVGDRITISCQASQDIDNYLNWYQQRSGKAPKLLIYDAYNLKAGVPSRFRGSRSGTDFFLTISSLQPEDFATYYCQQSYRAPLTFGGGTKVEIK
A word on the Ki: it is a dissociation constant, usually derived from enzyme kinetics or from competition with a known ligand. A high value points to weaker binding. Turning to B1, the “IC50 (nM), IgGs” value in test [1] came to 13.3 nM. For the same molecule, in test [2], the Ki turned out to be 4.97 nM.

B2: 539A-M0013-G12 IgG (antibody, V domains shown)
VH: EVQLLESGGGLVQPGGSLRLSCAASGFTFSWYHMFWVRQAPGKGLEWVSGISSSGGYTHYADSVKGRFTISRDNSKNTLYLQMNSLRAEDTAVYYCATREGMLYDYVWGENYMDVWGKGTTVTVSS
VL: DIQMTQSPSSLSASVGDRVTITCQASQDTYNRLHWYQQKPGKAPKLLIYDAVNLNRGVPSRFRGSGSGTNYILIITNLQPEDTATYYCQHSDDLSLAFGGGTKVEIK
notes: also called M0013-G12 IgG a-huMMP12
As for B2, the “IC50 (nM), IgGs” value in test [1] came to 4.1 nM. In test [2], this molecule registered a Ki of 2.05 nM.

B3: 539A-M0013-H06 IgG (antibody, V domains shown)
VH: EVQLLESGGGLVQPGGSLRLSCAASGFTFSAYEMDWVRQAPGKGLEWVSGISSSGGPTYYADSVKGRFTISRDNSKNTLYLQMNSLRAEDTAVYYCARVGGWELLQDYYYYMDVWGKGTTVTVSS
VL: DIQMTQSPATLSLSPGERATLSCRASHSVDNLAWYQQQPGQAPRLLIYDVSYRATGIPARFSGSGSGTDFTLTISSLEPEDFAVYYCQQRNNWPLSLTFGGGTKVEIK
Turning to B3, the “IC50 (nM), IgGs” value in test [1] was 5.3 nM. The molecule also displayed a Ki in test [2] of 2.7 nM.

B4: 539B-M131A06 (antibody, V domains shown)
VH: EVQLLESGGGLVQPGGSLRLSCAASGFTFSWYWMHWVRQAPGKGLEWVSGISPSGGMTMYADSVKGRFTISRDNSKNTLYLQMNSLRAEDTAVYYCARDIVGPYSAGLFDYWGRGTLVTVSS
VL: DIQMTQSPSSLSASVGDRVTITCRANQSIYTYLNWYQQKPGKAPELLIYAASSLQSGVPSRFSGSGSGTDFTLTISSLQPEDFATYYCQQAGIFGQGTKLEIK
notes: N-glycosylation site in LC CDR1; also called M0131-A06
B4 displayed a Ki in test [3] of under 0.3 nM.

B5: 539B-M0008-H09 (format not stated) (antibody, V domains shown)
VH: B4 VH with W31D, W33N, G50Y, S52G, M57Y, M59H, R98K, V101R, P103A, A106S
VL: B4 VL
notes: Same clone as m49 and m54; also called M08H09
Turning to B5, the Ki amounted to 2.8 nM in test [4] and 2.2 nM in test [5].

B6: 539A-M0016-A11 IgG (antibody, V domains shown)
VH: EVQLLESGGGLVQPGGSLRLSCAASGFTFSEYQMAWVRQAPGKGLEWVSSIYPSGGHTHYADSVKGRFTISRDNSKNTLYLQMNSLRAEDTAVYYCAKESYYDFWSGYYFDYWGQGTLVTVSS
VL: DIQMTQSPSSLSASVRDRVTITCRTSQNINTYLNWYYQAPGRAPKLLIFGVSSLHRGVSSRFSGSGDGTEFTLTISSLQPEDIGTYFCQQSYSSPWTFGQGTKVEIK
notes: also called M0016-A11 IgG a-huMMP12
For the molecule B6, the “IC50 (nM), IgGs” value in test [1] was 2.1 nM. The same molecule gave a Ki in test [2] of 0.7 nM.
